From patent US20190360025A1

Tests used:
[1] = target: tumor necrosis factor alpha (TNF-α), R&D Systems 210-TA-005 (UniProt P01375); test: c-PLA 1X probes, human plasma; TNF-α 5.00E-07 M
[2] = target: tumor necrosis factor alpha (TNF-α), R&D Systems 210-TA-005 (UniProt P01375); test: c-PLA 1X probes, human plasma; TNF-α 1.00E-11 M
[3] = target: tumor necrosis factor alpha (TNF-α), R&D Systems 210-TA-005 (UniProt P01375); test: c-PLA 1X probes, human plasma; TNF-α 1.00E-13 M
[4] = target: tumor necrosis factor alpha (TNF-α), R&D Systems 210-TA-005 (UniProt P01375); test: c-PLA 10X probes, buffer; TNF-α 1.00E-08 M
[5] = target: tumor necrosis factor alpha (TNF-α), R&D Systems 210-TA-005 (UniProt P01375); test: c-PLA, buffer; TNF-α 1.00E-12 M
[6] = target: tumor necrosis factor alpha (TNF-α), R&D Systems 210-TA-005 (UniProt P01375); test: t-PLA 10X probes, buffer; TNF-α 1.00E-08 M
[7] = target: tumor necrosis factor alpha (TNF-α), R&D Systems 210-TA-005 (UniProt P01375); test: c-PLA 1X probes, buffer; TNF-α 5.00E-07 M
[8] = target: tumor necrosis factor alpha (TNF-α), R&D Systems 210-TA-005 (UniProt P01375); test: c-PLA 1X probes, human plasma; TNF-α 1.00E-09 M
[9] = target: tumor necrosis factor alpha (TNF-α), R&D Systems 210-TA-005 (UniProt P01375); test: SPR (Biacore T200), 1:1 global fit
[10] = target: tumor necrosis factor alpha (TNF-α), R&D Systems 210-TA-005 (UniProt P01375); test: t-PLA 1X probes, buffer; TNF-α 1.00E-11 M
[11] = target: tumor necrosis factor alpha (TNF-α), R&D Systems 210-TA-005 (UniProt P01375); test: c-PLA 10X probes, human plasma; TNF-α 1.00E-09 M
[12] = target: tumor necrosis factor alpha (TNF-α), R&D Systems 210-TA-005 (UniProt P01375); test: c-PLA 1X probes, human plasma; TNF-α 1.00E-10 M
[13] = target: vascular endothelial growth factor (VEGF), R&D Systems 293-VE-010 (human) (UniProt P15692); test: c-PLA, buffer; VEGF 1.00E-08 M
Sequence of UniProt P15692 (P15692 other isoform, or with tags, fused parts or gaps limits assumed): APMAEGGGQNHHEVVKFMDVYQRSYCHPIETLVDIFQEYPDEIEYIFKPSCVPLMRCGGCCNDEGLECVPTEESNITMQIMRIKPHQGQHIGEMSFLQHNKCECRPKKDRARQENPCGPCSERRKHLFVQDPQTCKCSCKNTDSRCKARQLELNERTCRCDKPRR

[14] = target: vascular endothelial growth factor (VEGF), R&D Systems 293-VE-010 (human) (UniProt P15692); test: c-PLA, human plasma; VEGF 1.00E-09 M
[15] = target: vascular endothelial growth factor (VEGF), R&D Systems 293-VE-010 (human) (UniProt P15692); test: c-PLA, buffer; VEGF 1.00E-14 M
[16] = target: vascular endothelial growth factor (VEGF), R&D Systems 293-VE-010 (human) (UniProt P15692); test: t-PLA, human plasma; VEGF 1.00E-12 M
[17] = target: vascular endothelial growth factor (VEGF), R&D Systems 293-VE-010 (human) (UniProt P15692); test: t-PLA, chicken plasma; VEGF 1.00E-11 M
[18] = target: vascular endothelial growth factor (VEGF), R&D Systems 293-VE-010 (human) (UniProt P15692); test: t-PLA, chicken plasma; VEGF 1.00E-12 M
[19] = target: vascular endothelial growth factor (VEGF), R&D Systems 293-VE-010 (human) (UniProt P15692); test: t-PLA, buffer; VEGF 1.00E-14 M
[20] = target: vascular endothelial growth factor (VEGF), R&D Systems 293-VE-010 (human) (UniProt P15692); test: t-PLA, chicken plasma; VEGF 1.00E-13 M
[21] = target: vascular endothelial growth factor (VEGF), R&D Systems 293-VE-010 (human) (UniProt P15692); test: t-PLA, chicken plasma; VEGF 1.00E-10 M
[22] = target: vascular endothelial growth factor (VEGF), R&D Systems 293-VE-010 (human) (UniProt P15692); test: t-PLA, human plasma; VEGF 1.00E-09 M
[23] = target: vascular endothelial growth factor (VEGF), R&D Systems 293-VE-010 (human) (UniProt P15692); test: t-PLA, buffer; VEGF 1.00E-09 M
[24] = target: vascular endothelial growth factor (VEGF), R&D Systems 293-VE-010 (human) (UniProt P15692); test: t-PLA, human plasma; VEGF 1.00E-08 M
[25] = target: vascular endothelial growth factor (VEGF), R&D Systems 293-VE-010 (human) (UniProt P15692); test: SPR (Biacore T200), 1:1 global fit
[26] = target: vascular endothelial growth factor (VEGF), R&D Systems 293-VE-010 (human) (UniProt P15692); test: t-PLA, chicken plasma; VEGF 1.00E-08 M
[27] = target: vascular endothelial growth factor (VEGF), R&D Systems 293-VE-010 (human) (UniProt P15692); test: c-PLA, chicken plasma; VEGF 1.00E-08 M
[28] = target: vascular endothelial growth factor (VEGF), R&D Systems 293-VE-010 (human) (UniProt P15692); test: c-PLA, buffer; VEGF 1.00E-10 M

Sequence of UniProt P01375 (P01375 77-233 limits assumed): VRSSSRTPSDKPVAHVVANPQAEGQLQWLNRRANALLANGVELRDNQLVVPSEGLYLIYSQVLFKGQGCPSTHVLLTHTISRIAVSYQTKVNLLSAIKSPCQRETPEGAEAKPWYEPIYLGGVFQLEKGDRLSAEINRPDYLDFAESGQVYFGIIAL

Substance: affinity-purified polyclonal anti-TNF-α antibody (R&D Systems AF-210-NA)
- Counts [1]: 28800
- SBR [1]: 383
- Counts [2]: 105
- SBR [2]: 1.4
- Counts [3]: 83.7
- SBR [3]: 1.1
- Counts [4]: 359000
- SBR [4]: 1960
- Counts [5]: 4.62
- Counts [6]: 1.33e+09
- SBR [6]: 233
- Counts [7]: 33000
- SBR [7]: 2070
- Counts [8]: 1310
- SBR [8]: 17
- Kd [9]: 279 pM
- Counts [10]: 443000
- Counts [11]: 45400
- SBR [11]: 21
- Counts [12]: 331
- SBR [12]: 4.4

Substance: affinity-purified polyclonal anti-VEGF antibody (R&D Systems AF-293-NA)
- Counts [13]: 483000
- SBR [13]: 16300
- Counts [14]: 40500
- SBR [14]: 156
- Counts [15]: 203
- SBR [15]: 6.8
- Counts [16]: 2.06e+06
- SBR [16]: 1.3
- Counts [17]: 7.94e+06
- SBR [17]: 119
- Counts [18]: 787000
- SBR [18]: 12
- Counts [19]: 595000
- SBR [19]: 1.7
- Counts [20]: 133000
- Counts [21]: 9.58e+07
- SBR [21]: 1430
- Counts [22]: 1.4e+08
- SBR [22]: 86
- Counts [23]: 3.98e+09
- SBR [23]: 11500
- Counts [24]: 8.23e+07
- SBR [24]: 51
- Kd [25]: 3.6 pM
- Counts [26]: 1.49e+08
- SBR [26]: 2230
- Counts [27]: 40800
- SBR [27]: 4420
- Counts [28]: 95900
- SBR [28]: 3230
